# From the nanobody polyreactivity screen of Harvey et al. (2022)
# Test: yeast display, Sf9 membrane polyspecificity reagent, FACS + sequencing; frameworks hold sequencing errors
# Procedure, shortened: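 Nanobodies from a synthetic yeast display library (Saccharomyces cerevisiae BJ5465), induced 36–48 hours with galactose, were stained 1 hour at 4 °C with 10% biotinylated, detergent-solubilized Sf9 membrane reagent, enriched on streptavidin microbeads, then FACS-sorted. Anti-HA (expression) and streptavidin (reagent binding) fluorescence set low and high (top ~1%) gates. Polyreactivity labels come from the gate of origin. Genes were colony-PCR amplified, MiSeq 2 × 250 sequenced and filtered by CDR length.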
sequence,measurement,value
QVQLVESGGGLVQAGGSLRLSCAASGRTFPRYAMGWYRQAPGKERELVAAISRGGGTTYADSVKGRFTISRDNAKNTVYLQMNSLKPEDTAVYYCATRSPYSYPNLYYWGQGTQVTVSS,polyreactivity (PSR sort gate),high polyreactivity
QVQLVETRGGLVQAGGTLRLSCAASGYTVYRYAKGWYRQAPGKERELVAGISRDGGSTYYADSVKGRFTISRDNAKNTVYLQMNSLNPEDTAVYYCAADKTRYRLGRDYWGQGTQVTVSS,polyreactivity (PSR sort gate),low polyreactivity
QVQLVESGGGLVQAGGSLRLSCAASGSTSPIYAMGWYRQAPGKERELVAAINGVGSTNYADSVKGRFTISRDNAKNTVYLQMNSLKPEDTAVYYCNTRYSPGYQGTEVDYWGQGTQVTVSS,polyreactivity (PSR sort gate),low polyreactivity
QVQLVESGGGLVQAGGSLRFSCAASGYIFYKYAMGWYRHAPGKERELVAAIRRSGGSTYYADSVKGRFTISRDNAKNTVYLQMNSLKPEDTAVYYCAARYFRGSYPMGYWGQGTQVTVSS,polyreactivity (PSR sort gate),high polyreactivity
QVQLVESGGGLVQAGGSLRLSCAASGSIFRYNTMGWYRQAPGKERELVATITRRGGSTYYADSVKGRFTISRDNAKNTVYLQMNSLKPEDTAVYYCNADNFGGPYNYWGQGTQVTVSS,polyreactivity (PSR sort gate),low polyreactivity
QVQLQESGGGLVQAGGSLRLSCAASCTISQEDWMGWYRQAPCKEREFVASIGLGSNTNYADSLKGRFTISRDNAKNTVYLKMNSLKPEYTAVYYCASEENLAYYFKYYYWGQGTQVTVSS,polyreactivity (PSR sort gate),low polyreactivity
QVQLVESGGGLVQAGGSLPLSCAASGSTFLAYAMGWYRQAPGKERELVAAITWNSGSSTFYADSVKGRFTISRDNAKNTVYLQMNSLKPEDTAVYYCNADVPSPAYYGDGTPYREDNYWGQGTQVTVSS,polyreactivity (PSR sort gate),low polyreactivity
QVHLVESGGGLVQAGGSLRLRCAASGIIFRRYAMGWYRQAPGKESEFVAAIRYTGGGTYYADSVKGRFTISRDNAKNTVYLQMNSLQPEDTAVYYCAASSRVSKSHLYGYWGQGTQVTVSS,polyreactivity (PSR sort gate),high polyreactivity
QVQLVESGGGLVQAGGSLRLSSAASGRTTKVYAMGWYRQGPGKPRELVARITSSGVRRYYADSVKGRFTISRDNAKNTVYLHMNSLKPEDTAVYYCGKDARALWLHSGIYDYSGQGTQVTVSS,polyreactivity (PSR sort gate),low polyreactivity
QVQLVESGGGLVQAGGSRRISCAASGITFKWYAMGWYRQAPGKERELVAAISWSTGSTYYADSVKGRFTISRDNAKNTVYLQMNSLKPEDTAVSDCAADLQLPNLGDSYDYWGQGTQVTVSS,polyreactivity (PSR sort gate),high polyreactivity
QVQLVESGGGLVQAGGSLRLSCAASGSIFFLYAMGWYRQAPGKERELVAAISVGGGSTYYADSVKGRFTFSRDNAKNTVYLHMNSLKPEDTAVYYCAALSKTRGGYWGQGTQVTVSS,polyreactivity (PSR sort gate),high polyreactivity
QVQLVESGGGLVQAGGSLRLSCAASGSTFQPYTMGWYRQAPGTERELVAAITGRGGSTYYADSVKGRFTISRDNAKNTVYLQMNSLKPEDTAVYYCAAGAYRRNKSDYYYWGQGTQVTVSS,polyreactivity (PSR sort gate),low polyreactivity
QDQLVESGGGLVQAGGSLRLSCAASARIFPHYPMGWYRQAPGKERELVATITSGGRTNYADSVKGRFTISRDNAKNTVYLQMNSLKPEDTAVYYCAVDTWGSSWYDLFRETSDYWGHGTQVTVSS,polyreactivity (PSR sort gate),low polyreactivity
QVKLVESGGGLVQAGGSLRLSCAASGFIIGGYGMGWYRQAPGKERELVAVITASGGSTYYADSVKWLFTISRDNAKNTVYLQMNSLKPEDTGVYYCAARVGRYGYSQYYYWGQGTQVTVSS,polyreactivity (PSR sort gate),high polyreactivity
QVQLVESGGGLVQAGGSLRLSCAASGSTFTLYAMGWYRQAPGKERELVATITGSGGSTNYADSVKGRFTISRDNAKNTVDLQMNSLKPEDTAVYYCAKRVQQSTWYGYGIGYEYWGQGTQVTVSS,polyreactivity (PSR sort gate),high polyreactivity
QVQLVESGGGIVQAGGSLRLRCAASVRIFPCNTMGWYRQAPGKERELVAGINNGDRTYYADSVKGRFTISRDYAKNTVYLQMNILKPEDTAVYYCAADYVYFYFYGYDSWGQRTQVTVSS,polyreactivity (PSR sort gate),low polyreactivity
QVHLVESGGGLVQAGGSLRLSCAASGRTLYYYTMGWYRQAPGKERDLVAAIRWSTGSTYYADSVKGRFTISRDNAKNTVYLQMNSLKPEDTAVYYCNASRYQWAQSTEYDYWGQGTQVTVSS,polyreactivity (PSR sort gate),high polyreactivity
QVQLVESGGGLVQAGGSHRLSCAASGRIFGRNAMGCYRQAPGKERELVATITSGGGTNYADSVKGRFTISRDNAKNTVYLQMNSLKPEDTAVYYCAATVAILRKFWMDYWGQGTQVTVSS,polyreactivity (PSR sort gate),low polyreactivity
QVHLVESGGGLVQAGGSLRLSSAASGRTLSRYAMGWYRQAPGKERELGASISWSGGRTYYADSVKGRFTISRDNAKNTVYLQMNSLKPEDTAVYYCAAVYVTAPFDYWGQGTQVTVSS,polyreactivity (PSR sort gate),low polyreactivity
QVQLVESGGGLVQAGGSLRLSCAASGSIFYGNAMGWYRQAPGKERELVAAISARGGSTNYADSVKGRFTISRDNAKNTVYLQMNSLKPEDTAVYYCAADTPVWSGYWYDYWGQGTQVTVSS,polyreactivity (PSR sort gate),low polyreactivity
QVQLVESGGGLVQAGGSLRLSCAASGSIFTYYAKGWYRQAPGKERELVAAISRRGTRTYYADSVKGRFTISRDNAKNTVYLQMNSLKPEDTAVYYCAKVGYTYRAYEFAYWGQGTQVTVSS,polyreactivity (PSR sort gate),high polyreactivity
QVHLVESGGCLVQAGGSLRLSCAASGRIFGLYAMGWYRPAPGKESELVAAISEGGGSTNYADSVKWRFTISRDNAKNTVYLQMNILKPEDTAVYYCAATYRTGVRRYYSWGQGTQVTVSS,polyreactivity (PSR sort gate),low polyreactivity
